Data as given in patent US20030157522A1, “Methods and reagents for peptide-BIR interaction screens” (priority 2001, published 2003).
No end group written: not given here.

Columns and labels:
[1] = system: T24 bladder carcinoma cells; experiment: Sensitization of adriamycin-resistant T24 cells (cell survival); format: cell-based; conditions: 10 μg/ml adriamycin alone
Protocol: FIG. 8 is a schematic illustration showing the effect of a compound identified as being capable of dislodging a HID 7mer from XIAP BIR3 on cell survival of T24 bladder carcinoma cells after 24 hours of exposure to 10 μg/ml adriamycin.
This is what we would expect from a compound that blocks the ability of IAPs to block caspases once the cell death pathways are activated by a death stimulus such as chemotherapy or radiation. Cancer cells in vivo may also die by the simple addition of the compound if the cancer cell is stressed by oncogene activation, nutrient deprivation, or loss of contact, and the IAPs are blocking caspases from effecting programmed cell death. The compound would be expected to antagonize IAP function and allow caspase activation under these situations.

XIAP BIR3 [2] = target: T1, XIAP BIR3 (Homo sapiens, UniProt P98170); conditions: previously shown; cited from earlier work
T1 construct: as the C-terminal portion of XIAP lacking BIR1 and BIR2, and containing BIR3 and the RING domain to the final C-terminal residue; made in house; host or cells: E. coli

XIAP BIR3 [3] = target: T1, XIAP BIR3; experiment: Fluorescence polarization HID peptide displacement assay; format: binding; conditions: GST BIR3/Ring, fluorescein-HID probe
From the text: We developed an assay to screen for compounds capable of competing for the binding of an IAP-interacting peptide and displacing the peptide from its binding groove on BIR3 of XIAP (FIGS. 2-5). The BIR3 domain was produced as a GST fusion protein in E. Coli, as the C-terminal portion of XIAP lacking BIR1 and BIR2, and containing BIR3 and the RING domain to the final C-terminal residue, and purified to greater than 95% purity. Only the properly folded BIR3 domain is required here, and many fusion and purification strategies are available to achieve this.
The FP assay is based on the following principles: a smaller molecule tumbles more rapidly in solution than a larger one. A tumbling fluor will depolarize plane-polarized light, and any change in tumbling rate due to binding of the peptide to a larger molecule such as XIAP or the displacement of the peptide from XIAP, and therefore any change in fluorescence polarization can be accurately and sensitively measured (FIGS. 2A and 2B). […]
Assays and High Throughput assays. […] Following overnight incubation at 4° C., the fluorescence polarization was measured using a Polarion plate reader (Tecan, Research Triangle Park, N.C.). […]
Upon primary screening, hits were re-supplied from Talon Cheminformatics (Acton, ON, Canada) and a new 20 mM drug stock was prepared in 10% DMSO. […] Fluorescence Polarization Units are expressed in MP (FIG. 6).

T1 sequence (P98170 246-497 limits assumed): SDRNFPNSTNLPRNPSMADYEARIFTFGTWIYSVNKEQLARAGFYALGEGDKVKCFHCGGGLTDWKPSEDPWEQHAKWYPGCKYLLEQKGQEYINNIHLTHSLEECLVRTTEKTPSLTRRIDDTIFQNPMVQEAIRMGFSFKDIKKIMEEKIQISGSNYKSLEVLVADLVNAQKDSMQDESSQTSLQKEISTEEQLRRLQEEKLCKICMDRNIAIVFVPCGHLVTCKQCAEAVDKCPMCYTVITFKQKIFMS

competition with / displacement of fluorescein-labeled HID peptide from XIAP BIR3 (XIAP BIR3 [3]; listed as HID polypeptide)	Compound	cell death with adriamycin on its own [1]	binding affinity to XIAP BIR3 (XIAP BIR3 [2])	competition with / displacement of fluorescein-labeled HID peptide from XIAP BIR3 (XIAP BIR3 [3])
	COc1cccc2c1C(=O)c1c(O)c3c(c(O)c1C2=O)C[C@@](O)(C(=O)CO)C[C@@H]3O[C@H]1C[C@H](N)[C@H](O)[C@H](C)O1 [adriamycin]	does not result in any cell death		
can compete with labeled HID polypeptide	Ala-Val-Pro-Phe-Tyr-Leu-Pro-Gly-Gly (AVPFYLPGG; not fully specified (C-terminus); printed as Ala-Val-Pro-Phe-Tyr-Leu-Pro-Gly-Gly; also: fluorescein label (probe form)) [HID peptide, peptide based on Drosophila HID with Gly-Gly spacer]		high affinity	compete off the fluorescein-labeled peptide
